Measured values from the nanobody polyreactivity screen of Harvey et al. (2022).

assay: yeast display, Sf9 membrane polyspecificity reagent, FACS + sequencing; frameworks hold sequencing errors
Procedure, shortened: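 Genes from sorted yeast were amplified by colony PCR, read by MiSeq 2 × 250 sequencing and filtered on CDR length. These cells carried a synthetic nanobody library in Saccharomyces cerevisiae BJ5465 and were sorted by FACS into low and high (top ~1%) gates on anti-HA and streptavidin fluorescence. Polyreactivity is labelled according to the gate of origin.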

Sequence | polyreactivity (PSR sort gate)
QVQLVESAGGVVQAGGSLRLSCAPSGRTFYPYVMGCYRTAPGKERELVARIRWSGSSTYYADSEKGRFTISRDNAKNTVYLQMNSLKPEDTAVYYCNARPSWYVFGSSVHSGMGYWGQGTQVTVSS | high polyreactivity
QVQLVESAGRLVQAGGSLRLSCDASGSTFKGYPIGWYRQAPGKERELVAAISRRGGSTYYADSVKGRFTISRDNAKNTVYLQMNSLKPEDTAVYYCAKEGQLRYDYWGQGTQVTVSS | high polyreactivity
QVQLVESARGLVKAGGSLLLSCAAYVSIFNHYAMGWYRQAPGKESELVARITNRSGNTYYADSVKGRFTISRDNAKNTGYLQLNSLKGEDTEVYYCAATKSLGRYNMDYWGPGTQVTVSS | low polyreactivity
QVQLVESAVGLVKAGGSHRLSCAASASTFYLNARGWYRQAPGKEREFVAAIRGGGTSKRYADSVKGRFTISRDNATNTVYLQMNILKPEDSAVYYCAAGRGGHRYKVGYWGLGTQVTVSS | high polyreactivity
QVQLVESAVGLVQAGGSLRLSCAASGTTFVRYAMGWYRQAPGKEREFVAASSKSGGSTYYADSVKGRFTISRDNAKNPVYLQMNSLKPEDTAVYYCATRTTYGQSGSAGPRPSNYWGQGTQVTVSS | low polyreactivity
QVQLVESCGCLVQAGGSLRFSCAASGNTFRRNVMGWYRQAPGKEREMVAAINRGGSTTYADSVKGRFTISRDNAKNTVYLQMNSLKPEDTAVYYFNDRTLFKWRHGHYYAYDYWGQGTQVTVSS | high polyreactivity
QVQLVESCGGIVQAGGSLRLSCAASGSILRSNSMGTYRQAPGKERELVAAISSRGGSTYYADSVKGRFTISRDNAKNTVYLQMNSLNPEDTAVYYCNKASYTVISYDEYDYWGQVTQVTVSS | high polyreactivity
QVQLVESCGGLDQAGGSLRLSCAASGRIFYAYAMGWYRQARGKERELVAAITSSGGRTYYADSVKGRFTISRDNAKNTVYLQMNSLKPEDTAVYYCAAYDYWGQGTQVTVSS | low polyreactivity
QVQLVESCGGLVQAGASLRLSCAASGSTFYDNVMGWYRQAPWKERELVAAITWRGGSTYADSVKGRFTISRDNAKNTVYLQMNSLKPEDTAVYYCNADDDYQQYLGDYWGQGTQVTVSS | low polyreactivity
QVQLVESCGGLVQAGGILRLSCAAYGRTFYKNAIGWYTQAPGKERELVAAMSSRGGRTTYADSVKGRFTISRDNAKYTVYLQMTSLKPEDTAVYYCAADWAQVYHGTPKYYYWGQGTQVTVSS | high polyreactivity
QVQLVESCGGLVQAGGSLRLRCAASGRIIRKYVMAWYRQAPGKERELVAAITGGGSTYYADSVKGRFTISRDNAKNTVYFQKNSLKPEDTAVYYCAADRQSAAHRLWGSEYGYWGQGTQVTVSS | high polyreactivity
QVQLVESCGGLVQAGGSLRLRCAASGSIFSGYVMVWYRPAPGKERELVAAISGSGGSTYYADSVKGRFTISRYNAKNTVYLQMNSLKPEDTAVYYCNVDRSPTHIVGYGYWGQGSQVTVSS | low polyreactivity
QVQLVESCGGLVQAGGSLRLSCAASGFTFLGYAMGWYRQAPGKERELVAAITSGDSTDYADSVKGRFTISRDNAKNTVYLQMNSLKPEDTAVYYCNAELGSAYEYWGQGTQVTVSS | low polyreactivity
QVQLVESCGGLVQAGGSLRLSCAASGFTFVYYAMGWYRKAPGKEREFVAAISKSGGSTYYADSVKGRFTISRDNAKNTVYLQMNSLKPEDTAVYYCAARSYQGTSSGRVTRRYDYWGQGTQVTVSS | high polyreactivity
QVQLVESCGGLVQAGGSLRLSCAASGLIFIYNAMGWYRQAPGKERELVAAISRSGGRTYYADSVKGLFTISRDNAKNTVYVQMNSLKPEDTEVYYCATDASTYAYYGGDYWGQGTQVTVSS | low polyreactivity
QVQLVESCGGLVQAGGSLRLSCAASGRIFNHNAMGWYRQAPGKEMKLVAAISWRGGSTYYADSVKGRFTISRYNAKNTVYLQRNSLKPEDTAVYYCATKPSPITYKLDYWGQGTQVTVSS | high polyreactivity
QVQLVESCGGLVQAGGSLRLSCAASGRIFPYNAMGWYRQAPGKERELVAAIDWRDNTYYADSVKGRFTISRDNAKNTVYLQMNSLKPEDTAVYYCNVDYTDYFLNKYDYWGQGTQVTVSS | low polyreactivity
QVQLVESCGGLVQAGGSLRLSCAASGRTFGYYAMGWYRQAPGNERELVAAISRGGRTNYADSVKGRFTISRDNAKNTVYLQMNSLKPEDTAVYYCAKSGTIPRYTASYSLLDYWGPGTQVTVSS | low polyreactivity
QVQLVESCGGLVQAGGSLRLSCAASGSTFTVNAMGWNRQAPVKERELVDAITQSRGSTSYADSVKGRFTISRDNAKNTVYVQMNSLKPEDTAVYYCNAQRGVRSRKSYRRQFDYWGHGTQVTVSS | low polyreactivity
QVQLVESCGGLVQAGGSLRLSCAATGSTIRTYAMGWYRQAPGTERELVAAISRSGGRTYYADSVKGRFTISRDNAKNTVYLQMNSLTPEDTAVYYCAKVSQRRVDTSDYDYWGQGTQVTVSS | high polyreactivity
QVQLVESCGGLVQAGGSLRLSCAGSGSTFVYYAMGWSRQAPGQERELVAAISRSGGSTYYADSVKGRFTISRDNAKNTVYLQMHSLKPEDTAVYYCNKYAIFPAYRYPRSDYWGQGTQVTVSS | high polyreactivity
QVQLVESCGGLVQAGGSLRLSFAASGSTFGYYTMGWYRQAPGKERELVAAISWSGGSTYYADSVKGRFTISRDNAKNTVYLQMNSLKPEDTAVYFCAALGYTYKYYSYYWGQGTQVTVSS | high polyreactivity

Sequence | polyreactivity (PSR sort gate)
QVQLVESCGGLVQAGGSLRLTCAASGSTFTIYAMGWYRQAPGKERELVAVISSSGGSTYYADSVKGRFTISRDYAKNTVYLQMNSLKPEDTAVYYCAADTRYFGGYLTLYYWGQGTQVTVSS | low polyreactivity
QVQLVESCGGLVQARGSLRLSCAASGRTIDSYAMGWYRQAPGKERELVAAITSGVSTYYADSVKGRITISRDNATNTVYLQMNSLQPEDTSVYYCARKHAIWRGYDFWGQGTQVTVSS | low polyreactivity
QVQLVESCGGLVQAVGSLRLSCAASGIIIGYNAIGWYILAPGKEREFVAAISGYGGSTRYADSVKGRFTISRDYGKNSVYLQMNSLKPEDTAVYYCAARSRYCYITFDYWGQGTQVTVSS | high polyreactivity
QVQLVESFGGLVHAGGSLRLSCAASGFTFTSYTMGWYRQAPGKEREMVAAITNTGGSTYYADSVKGRFTISRDNAKNYVYLQMNSLKQEDTWVYYCAARTHIYGKFWRFYWGQGTQVTVSS | low polyreactivity
QVQLVESGAALVQAGGSLRLSCAASGFTFFTYAMGWYRQATGKDSELVAAITSSGGSTYYADSVKGRFTISRDNAKNTVYLQMNSLNPEDTAVYDCAASVYFWYDYWGQGTQGTVSS | high polyreactivity
QVQLVESGAGIVQAGGSLRLCCAATGITFDFYAMGWYTQAPGKERELVAAISYSGTSTSYADSVKGRFTISRDNAKNTVYLQMNSLKPEDTAVYYCNARIGWTHSYYELDYWGQGTQVTVSS | low polyreactivity
QVQLVESGAGLVHAGGSLRFSCAPSGIIIYRYAMGWYRQAPGKERELVAGISQRGGNTYYADSVKGRFTISRDNEKNTVYLQMYSLKPEDTAVYYCAAPYYGTRTNNRHEYWGLGTQVTVSS | high polyreactivity
QVQLVESGAGLVHAGGSLRLSCAASGSTFSPYAMGWYRQAPGKESELVAAITSSGGSTYYADSVKGRFTISRDNAKNTVYLQMISLKPEDTALYYCAAVGYYTSTYDLYDYYYWGQGTHVTVSS | low polyreactivity
QVQLVESGAGLVKAGGILRLSCAASGFTFYGYAMGWYRQAPGKERELVAAITFRGDRTYYADSVKGRFTISRDNAKNTVYLQMNSLIPEDTAVYYCAAERPSGWYSYLSLYIVRRGYWGQGTQVSVSS | low polyreactivity
QVQLVESGAGLVKAGGSLRLSCAASGFSFQRNAMGWYRQAPGKERELVAAINRSGGRTYYADSVKGRFTISRDNAKYTVYLQMNSLKPEDTAVYYCAADSTYEYYFWGQGTQVTVSS | high polyreactivity
QVQLVESGAGLVLPGGSLRLSCAASGNTTSTNAMGWYRQAPGKERVAALTWSTGSTYYEDSVKVRFTISRDNAKNTVYLQMNSLKQDETAVYYCAKQTYVSEYGLATAAWGFDYWGQGTQVTVSS | low polyreactivity
QVQLVESGAGLVQAAGSLSLSCASAGSTFFLYAMGRYRRAHGKVREFVAAISDTGGSTYYADSVKGRFTISRDNATNTVYLQMISLKPEDTACYYCNRVVASFYRSRYDYWGQGTQVTVSS | low polyreactivity
QVQLVESGAGLVQAGGILRLSCAASGRIIAYYAMGWYRQAPGKERELVAAINWSGGRTYYADSVKGRFTISRDNAKNTVYLQMNSLKPEDTAVYYCAARVSYGYDYWGQGTQVTVSS | high polyreactivity
QVQLVESGAGLVQAGGILRLSCAASGSTFIYNAMGWYIQAPGKERELVAAISARTGNTYYADSVKGRFTISRDNAKNTVYLQMNSLKPEDTAVYYCARRGFRRGGGPSRYYWYDYWGQGTQVTVSS | high polyreactivity
QVQLVESGAGLVQAGGRLRLSCAASGIIFYNYAMGWYRQAPGKERQFVAAISWSGGSTNYADSVKGRFTISRDNAKNTVYLQMNSLKPEDTAVYYCAAEYSGNNYNSDYWGQGTQVTVSS | low polyreactivity
QVQLVESGAGLVQAGGSLGLSCAASGFTFRTYAMGWYRQAPGKERELVADISGSGGSTYYADSVKGRFTISRYNAKNTVYLQMISLKPEDTAVYYCAGTIYNWGYERDYWGQGTQVTVSS | high polyreactivity
QVQLVESGAGLVQAGGSLRLRCAASGYTLGPYAMGWYRPAPGKERELVAAISWGGGRTYYADSVKGRFTISRDNAKNTVYLQMNSLKPEDTAVYDCAAKWSHVRDGPKYDYWGQGTQVTVSS | low polyreactivity
QVQLVESGAGLVQAGGSLRLSCAASGFIFRYYAMGWYRQAPGKERELVARITPRGGRTYYADSVKGRFTISRDNAKNTVYLQMNSLKPEDTAVYYFAAVYPVLHEFGYWGQGTQVTVSS | high polyreactivity
QVQLVESGAGLVQAGGSLRLSCAASGFIYEWYTMGWYTQAPGKERELVARISTDGSTTYADSVKGRFTISRDHAKKTVYLQMNSLKPEDTSVYYCAADVTYPGLKYIFDYWGQGTQVTVSS | low polyreactivity
QVQLVESGAGLVQAGGSLRLSCAASGGTFESYAMGWYRQAPGTERELVAAISGRGGRTYYADSVKGRFTISRDNAKNTVYLQMNSLKPEDTAVYYCRYWYYRTYYYWGQGTQVTVSS | high polyreactivity
QVQLVESGAGLVQAGGSLRLSCAASGITFYTYAMGWYRQAPGKERELVAAITSRTGSTYYADSVKGRFTISRDNAKNTVYLQMNSLKPEDTAVYYCAADRTRGRDGSDYWGQGTQVTVSS | low polyreactivity
